From PMC12172430

Biological target: DS-Cav1 (soluble trimeric RSV prefusion F ectodomain) (respiratory syncytial virus | bacteriophage T4) (UniProt P03420)
Experiment: native gel or EMSA; native-PAGE and native western blot of the purified soluble RSV F protein

DS-Cav1 (soluble trimeric RSV prefusion F ectodomain) (from UniProt P03420 26-513)
stoichiometry N: 3
